In the DeepSol protein solubility set:

Assay: soluble on expression in E. coli; label from the status in PepcDB or PDB records

Sequence | soluble on expression in E. coli
MGSDKIHHHHHHMKHFKYGAIALTLISGLAACGGSGSDEPEVVVPETGFSFDADALIVNLSDEVIVKGYSTLADRGEALLQATQTLVATPTQANLEAAQSAWKAARQPWEQGESHIFGPVDSLGIDPHLDSWPLNTTDLKTVLINSSGFDAETIKGWNDDVQGFHTMEFLLFGDGMDDNVKQIDELTANERDYLMGLAEVFRDYTKQLADAWLVSHDGQSGKAYGELLKSPGVDGNTFYSSQVGVLEELIKGMIGIVDEVGNGKIADPFGGSLASADTSKVESQYSWNSLTDFSDNIIGVRNVYQGEFTGEADKQGIIDFVRAADSELASRIAAEIDAAILQIHAIEGTDKMPFRQAIKDEAGRARIQKAVDALATLQASLENQVLPLLKEWKV | not soluble
MGSDKIHHHHHHMLNKRAQILLKTLVERYISEGQPVGSRSLSKFSGLDLSAATIRNVMADLEDMGLVASPHASAGRIPTHQGYRFFVDTLLVVKPLDVIEIHQLQDQLHPDNPSRLINSASQLLAELTRFAGVVVSPKRNSAIFRYIEFMSLSEKRVLLIIVTPEGDVQNRVLFTDRNYSQSELTEAANFINHNYAGCAIDEIRTRLQSELKQLRQDMTSLMTAAIDAGDAAIRENSEAVIVAGERKLLDVQDLSSNMASLKKLFDLFERKTALLQLLEFSRKAEGVQIFIGEECGVVTMDEFSVVTAPYRVDGKMVGTVAVIGPTRMAYERVIPVVDMTARLLSSALSLH | not soluble
MGSDKIHHHHHHAQNRNTSICRLGFTYDISQSKNWGNNKPVIKSIIPYSSAEQAGIKKYDVIEEINGVPVTEVSVDEIPQLLNPAGRNDVLLTISNLSSPSKQVLVKKDCKKSNAITEDQLASAYAMYSLETTNEQEFVCPFKTTVTSDGVDFGNFKTFAFSTIDENNRKLETVINECIENELTKKGLTVDIAKPDLLIQTFYFFDKNPNYLGANKVLVEKEPTYRYNFSHSKMEKFPFLNYAAAEAEAEYLLQFGIRIIDQKDIPGRVLWECEANELLEDSYRLDEYARVHVPLMCMQYPYTKYGRNVPFKVSKKTYNYTGISYDIDKLDQVVDVDRNSPAYAAGIRPRDIIEKIGRHKMDHSAEEFSSAYKRFITNTMQYRDPKTMFTDANGFKYCMFWDVFKYPQIADASQSSDYLPAFSYLYYFAPYINPSGNNACTFNIKRGKTKLEVIIRPTIRSEVTVEIK | not soluble
MRDYATTAAGFDLQRTAAATLSGTLQALNACVECCDRHALPGRIALFWEGKDGSRASYTFSELKALSGRFANFLQAQGVRPGDCVAGLLPRTPELLVTILGAWRLGAVYQPLFTAFGPKAIEHRVATAGSKVLVTDAANRDKLDELADPPLAVTVGGPKGQGIRRGDFSFWAELERYPAEFEPVPRSGEDPFLMMFTSGTTGLAKPVPVPLKAILAFVGYLREAVDLRPEDAFWNLADPGWAYGLYYAVAGPLAMGHPTTFYEGPFSVESTCRIIRDYGITNLAGSPTAYRLLMAAGAAAETALKGRLRAVSSAGEPLTPEVIRWFADRLGTTIHDHYGQTELGMVLCNHHALAHPVRVGAAGFACPGHRVVVLDDDLNELPPGQPGILALDRRRSPLMWFPGYQGLETAAFVGDYYLSGDTVELNEDGSISFVGRADDVITTSGYRVGPFDVESALIEHPAVMEAAVIGKPDPERTELVKAFVVLCAGHRPTPELADALQRYVRQRLSAHAYPREIEFLEELPKTPSGKIQRFLLRNQEIARQREAAPRAAAAN | not soluble
MTRQGWLVPCLSHGKDDQLQDELSELSKAYRKKFQTDLHTKSGDIIDPSGEFLYVYLDEENYRICRQSMVLVSNAPDGLIATTLEPYSDSYTFRQVREQLQAFSGDGGRINYSRNEHSSSYFLTIQASNEFKHVGAVRNTFGQSKDIWKRRMPDASQPLDYHLIAVGCSAFLPEAALDDVESDGAVLEHHHHHH | not soluble
MENKMVEYRKKFGLSQEKLAEKLGVSRQTIISIEKGKYDPSLPLAFEIAKTFQTTIEHVFIYEGKEGEE | not soluble
MSLHRLQKVVRHIAQTEIMPRFLNTPSRRKEDGSMLSEADIAAQTAFAAALPLLIDCPMLGEEMSRQEQSALWEQYSGEKGLWIVDPIDGTNNFVNGLPHFAVSVAFVRNGRAELGVIYNPVSGECFYAERGQGAFLNGTRLPLRLVDKKLNEAIAGVEIKYLRSGKLSSRMSTLAPFGTIRSMGSSTLDWCYLACGRYDVYVHGGQKLWDYAAGALIFEEAGGRLTTLEGDGFWSGEHVFKRSVVAALEPKLFERWVGWIRENQEGHHHHHH | soluble
MSLRERNQVIPVLPPQERPRPTVVFDCEDFLVKKRFSFFNLDFLVTGRAFADLFLFHAAHIYELVHVSGSPGSFSRLLLHRIDPYGCISYKVYCKDKKTFSSEHLNRPLQRVMVVSTRENEYHKDFDGNTIKLERWSGDPEHGLLDLLNFLHSLHFMGIKDFRGTLRSYLGEGHHHHHH | not soluble
GMANKVEHRLSEQQMKALTDLPLVFLITHDQSKSWPITHAISWVYAKDETTIRFAIEADSLLVKTLADHPVFTLIFFADQSTYSLTCTDVAAWETTARLPLKVALYEGQIKEVRDILFYGAAVSDRPRVYKTYDEAAAMQLDQQIQDILKG | soluble
MVPEVIEIDGKQWRLIWHDEFEGSEVNKEYWTFEKGNGIAYGIPGWGNGELEYYTENNTYIVNGTLVIEARKEIITDPNEGTFLYTSSRLKTEGKVEFSPPVVVEARIKLPKGKGLWPAFWMLGSNIREVGWPNCGEIDIMEFLGHEPRTIHGTVHGPGYSGSKGITRAYTLPEGVPDFTEDFHVFGIVWYPDKIKWYVDGTFYHEVTKEQVEAMGYEWVFDKPFYIILNLAVGGYWPGNPDATTPFPAKMVVDYVRVYSFVSG | soluble
MNNYTIKDITRASGGFAMLAVDQREAMRLMFAAAGAKTPVADSVLTDFKVNAAKILSPYASAVLLDQQFCYRQAVEQNAVAKSCAMIVAADDFIPGNGIPVDNVVLDKKINAQAVKRDGAKALKLLVLWRSDEDAQQRLNMVKEFNELCHSNGLLSIIEPVVRPPRCGDKFDREQAIIDAAKELGDSGADLYKVEMPLYGKGARSDLLTASQRLNGHINMPWVILSSGVDEKLFPRAVRVAMEAGASGFLAGRAVWSSVIGLPDTELMLRDVSAPKLQRLGEIVDEMMAKRR | soluble
MELFLAGRRVLVTGAGKGIGRGTVQALHATGARVVAVSRTQADLDSLVRECPGIEPVCVDLGDWEATERALGSVGPVDLLVNNAAVALLQPFLEVTKEAFDRSFEVNLRAVIQVSQIVARGLIARGVPGAIVNVSSQCSQRAVTNHSVYCSTKGALDMLTKVMALELGPHKIRVNAVNPTVVMTSMGQATWSDPHKAKTMLNRIPLGKFAEVEHVVNAILFLLSDRSGMTTGSTLPVEGGFWAC | soluble
GAEPVDEEAPLLMKNQKDFSSYLMGRQSIYKRHIIEDFVRKMLPGISEHKAASINNAVYSNFVREYKMLVKPEVSKKNYSRDVPFPDIELSLLPGAKEILEKSRNANSRVILISNRGHGDLENEINHLGMMHYFDVVSGAEEVTLEKSHLPPSQMPEDLQKRLINSLNGSDEEALRATLSEAAIYAHPDSTTIERIDKKPDSTRLAESLERLSVQPNVPITSYGDQPSDIKQLKSVAEPKSRVLKGVIVNAQRDDVGREIDVDGVPTRVVSKITEL | not soluble
MRPPSELLDIISKLAELDPLVRKGAVRQLSSKQEELSDNELNTYVIERLISGCASARAAVRLGYTTALGTILMTKAGESWELDKILAVADKKMDLAEKTVGTGHAIGHYLILVTYCQTRKLKEAEATKIVEHSKKIRDFAPSLAFSQINLLCSLATKTKESVFQKSVSPAIEMNLEGLSSQFTPENVYLALRLRNSHSTVVAKYAKFVKKDGSIQFSDDQYPKILAALKRCDFATVQVFLPLLIKASVESSGFDKMYLKVLEPWALSSNETKVFDRILTIVTQFFDFGGDVKSIVVVFTKEVLNRMETATRGKGQFRLMSKKVDDFAAFIQSKLSELRDEEAYTALKELEKCGNVDKACGTGLTTALLSNLGKKQISVWIKENLSNQDEVRKIVSAFSNWDEKSRITVLSALLSQKATETSQSVVTSIIDSLFYVKTRAGEFASIQISEKNEEVLRQLVVAVQGEEEVKKAEKSIGKSKLRKKSLQILWYVTRLWSRIAASSVDSAAYDSDSSEILAIAKNEADGNNSLVFVDLLLSILSREQKFHRTPTAFAFVHAIPTLESKDLCHIVETAMMSEAELAGNDDEDMEDEEGMPFDESEIPSGNGDDEASDSDDDDEEEDDDEGNEAVDQELLDKLNAALGDAAPRDSSSDVEMDDLDDEAMQKMDERLAAAFKAIAPKAGKDKKRSAKSVEALKMKIADLLLIAISSKELAEQSKIKLVVPLLKWAKVDAKTHDKVAQKVLELVNIVVKMKFTDVSEKDALQLLKQVLDEAQTTTNILIIDTVARCVTFVLKISSRDGKSMSAGVKTEFQSLFENYLKNVEGKVPSNFVIQPIADLPLLFVDQLGMLIDAGFDEENRIFKRTEILGAIAMIFTKQVLQETNIKGAIIKKIGKLAAAYFQKVVDSDKSELKPRLFGTVLQLILKVTVCIQNDEKHVDALRESLEYVIQKMFEGEVFIQLKKINPTCHHIIGKSIAGAFTSIKKSLDIEN | not soluble
MRLRKKPWARPALEACSFFVINPTEYKGKWREVFGNSNEIWLELGCGKGGFISKLASTNPDKNFIAVDIKDEVLALAMKKIENEYALIGAETKNIRLMAHEIMLIHRMLDENDQIGRIFINFCNPWPKNRHKARRLTHPNQLNQYRTFLAPNGQIWFKTDDTMLFQDSIKYFEQCNFNIVYLTEDLHASGFEGNIETEHERMFLEQGCKIKFLIAEKK | soluble
MVRGIRGAITVEEDTPEAIHQATRELLLKMLEANGIQSYEELAAVIFTVTEDLTSAFPAEAARQIGMHRVPLLSAREVPVPGSLPRVIRVLALWNTDTPQDRVRHVYLREAVRLRPDLESAQ | soluble
MGSDKIHHHHHHMVKGLDMIFYLHGFDATSPGNHEKMRQLQFIDPDVRLLSYSTLHPKHDMQHLLKEVAKQMQHTDDPEPLMVGVGLGAYWAERIGFLNGLKSVLINPNLHPENNMQGKIDRPEEYADIASKCVSEFRLKNTHRAMCIFSVNDDVLDCKANAQELSEYYAIEWDDVQPHKFPQLAAHLPKIKAFKLA | not soluble
MTKNTSYHYSIIIPHKNTPRLLERCLCSIPTWDEIQIIIIDDNSNSESVDFSHFPGNGRKNTEVLFTKEGKGAGYARNIGLSHARGKWIIFADADDFFTADCFTILNEYMDSPHEVIYFNVRFVMSDNPSQESRRGTYYTNFFNDVNPENKLRYQSQVPWGKMIRRSFLSTFHIQFDETRIANDVYFSCLVGIYAPKATTDRRIIYYCTESGQSLAMSKQDRESLIIRFNASMKCNRLLRQEKIHYYLSPLPWCIPSAKTKEWLPAKYFFEYLFFFRLQAFKELYYAFSAILSHMNEPATKETDNQCNKKTTNLRE | not soluble
MGSDKIHHHHHHMKSNVVVKYPVNSELANYAEKFWKKELAIYNLSLILNKMTPFVKRRSESYKSSLSAVKEIFKNVDDFQNFLNSVLRRSLDEYRVFFENYERLFNSFSSKIFSMRTKSRLVVGLGDESVYETSIRLHRNYGVPYIPGSALKGVAKHYAFSILARENGDEILRIYESVKEDLKARIAKRDKIKKNDVPEDYYLTAAVIQELFEKKFDELGAIRNTRVEIGDTVISVGDIVKIFGTQKEEGSVIFFDAFPTPEQLKDKPNLELDIMNPHYQPYYQHGEPPGDWHSPNPIFFLTVPAGVEFTFAVASRDLDDLAEKAEKLLKEALKKFGVGAKTSLGYGRFDARDDR | not soluble
GPGSMQPYGMSTSRTNRRPLVASRGGPNAPQRNYAMVTGPVDPSTSLIRYELPFSPADPKRSVKLRRRFGEPIEESVVDPNVRVVLDSFIPPRAWYDDDGVLWVQHASPKPASRTDTVETHEKLRRRLRETGAKRTGICPIRSLLLAECFLEVIRQVTVECWERGLVLLKIHAERVAAQTAHRELFESRVGYAFRLALKGEKDTSRVQQDLGKLKKRMEELAEEEKTLRQQCDEASARGEEEMLIVGKQHSDEVAAIKKEGILKRNQLEHMISMPSTP | soluble
